According to patent US6673571B2, “Polypeptides having aminopeptidase activity and nucleic acids encoding same” (Novozymes Biotech, Inc., priority 1997, dated 2004):

What was measured:
[1] = Temperature stability (residual activity after 20 minutes incubation); assay type: physicochemical; conditions: pH 7.5
Procedure: The temperature stability of aminopeptidase I was determined by incubating the enzyme for 20 minutes in 50 mM sodium phosphate pH 7.5 buffer at temperatures in the range of 35° C. to 55° C. followed by cooling on ice and measuring the residual activity using Ala-pNA as substrate at pH 7.5 as described above.

[2] = Substrate specificity: initial rates of hydrolysis of para-nitroanilides; assay type: biochemical; conditions: pH 7.5, 25° C.
Procedure: Stock solutions of 100 mg of each para-nitroanilide per ml of dimethylsulfoxide were diluted with 50 mM sodium phosphate pH 7.5 buffer to concentrations of 2 mg per ml. Where the substrates were incompletely soluble, their suspensions were used (shown with an asterisk in Table 2 below). The reaction of the Sphingomonas capsulata aminopeptidase I with each para-nitroanilide was initiated when a 10 μl aliquot of the enzyme solution in 50 mM sodium phosphate pH 7.0 buffer was added to 190 μl of a substrate solution in a 96 well microtiter plate. Analysis of initial rates of hydrolysis of the para-nitroanilides was monitored at 405 nm and 25° C. in a THERMOmax Microplate Reader (Molecular Devices Corp., Sunnyvale, Calif., USA).

[3] = Specific activity in glycine aminopeptidase units (GAPU); assay type: biochemical; conditions: Gly-pNA, 50 mM Tris-HCl pH 7.5, 37° C.
Procedure: The enzymes used with FLAVOURZYME™ and ALCALASE® were crude Sphingomonas capsulata aminopeptidase I powder and purified Sphingomonas capsulata aminopeptidase I as in Example 7. Glycine aminopeptidase unit (GAPU) of both crude and purified enzyme was measured in 50 mM Tris-HCl pH 7.5 buffer at 37° C. using Gly-pNA as a substrate. Aminopeptidase I was assayed at 37° C. in 50 mM Tris-HCl (pH 7.5). Gly-pNA (Bachem Feinchemikalien AG, Bubendorf, Switzerland) was dissolved in 40% dioxane at a concentration of 2.5 mg/ml and 1.5 volume of 50 mM Tris-HCl (pH 7.5) was added to a substrate concentration of 1 mg/ml. The enzyme sample was diluted in 500 μl of the same buffer and 100 μl of the substrate solution was added and incubated at 37° C. for 5 minutes. The reaction was terminated by the addition of 300 μl of 1 M sodium acetate pH 4.0 buffer. For the blank reaction, the stop solution was added to the enzyme solution and incubated for 5 minutes at 37° C., and then the substrate solution was added. The absorbance at 410 nm was measured for both the sample and blank reactions. The enzyme activity was calculated using the molecular extinction coefficient at 410 nm for pNA as 9480 M^−1 cm^−1. One unit of GAPU was defined as the quantity of enzyme that hydrolyses 1 micromole of Gly-pNA at 37° C. per minute under the conditions described above. […]

[4] = system: soy protein; assay: Release of free amino acids (FAA) in soy protein hydrolysis; assay type: biochemical, soy bean
Procedure: Hydrolysis was carried out on a 10 ml scale at 50° C. for 18 hours. The initial pH was 7 with no pH readjustment during hydrolysis. Inactivation of the enzyme was carried out at 85° C. for 3 minutes in a water bath. The substrate concentration was 2% protein from soy bean meal. The substrate was heat treated in a water bath at 85° C. for 3 minutes. The enzymes used with FLAVOURZYME 1000L™ and ALCALASE 2.4L® described above were crude Sphingomonas capsulata aminopeptidase I powder (see Example 1) and the purified Sphingomonas capsulata aminopeptidase I described in Example 4.
Hyp, methioninsulphonic acid, and Trp were not included in the Table due to very fluctuating and uncertain results.

[5] = pH optimum / pH profile with Ala-pNA; assay type: biochemical
[6] = 1.5% FLAVOURZYME +67 kDa AP versus 6.0% FLAVOURZYME

B1: Sphingomonas capsulata aminopeptidase I: purified aminopeptidase of 67 kDa from Sphingomonas capsulata IFO 12533; deduced amino acid sequence SEQ ID NO:2 (protein)
chain: MRKTPQGIGLLSALSTSTLALATLILAQPALAQVQPASNSRPMAVPIAHGVPDAQDVPYPGTIGLQIDATDLATGAFRVVETVPVAADAKELILQLPAWLPGEHGNRGPVAELAGITFEAKGQKLAWTRDPVEVNAFHIPLPAGTSEVVARFIHTSPLRDSEGRITVTREMLNVQWEKMSLYPAGHYVRQIKVRPTVSFPQGWTVFTALDGKTQSGAGNTVTWAETDYETLVDSPIFAGLYAARHDLGHNVYFDLVADKPELLAIKPENLAAYRNLADEAVGAFGARHFDHYDFLLALTDRMGSIGLEHHRSSENQQEPKSLTDWAAYDWDRNVIAHEFSHSWDGKYRRSAKLWTPDYRQPMQDNLLWVYEGQTQFWGLVLAARSGVQSKDVVLGSLANYAGTFTQTAGRDWRSVEDTTMDPIFAARKPKPYSSLTRNEDYYTEGALVWLEADQIIRDGTGGKKGLDDFAKAFFGVRDGDWGVLTYEFDDVVKTLNGVYPYDWATFLKTRLQTPGQPVPLGGIERGGYKLEFKDEPNPYDKARMADAKVLSLFNSLGVTLDKDGKVTASRWDGPAFKAGLVSGMQVMAVNGDAYDADKLKGAITNAKTGNPGAGRPIELLVKRDDRFVTLPITYADGLRWPWLVRTAPGTAPTGLDKLLAPHASKLPVGKAAK
- residual activity ([1]; 45° C.): approximately 60%
- residual activity ([1]; 50° C.): completely inactivated
- temperature stability ([1]; up to 40° C.): approximately 100%
- Relative activity (%) ([2]; Ala p-nitroanilide): 100%
- Relative activity (%) ([2]; Asp p-nitroanilide): 4.5%
- Relative activity (%) ([2]; Glu* p-nitroanilide (suspension)): 6%
- Relative activity (%) ([2]; Gly* p-nitroanilide (suspension)): 20%
- Relative activity (%) ([2]; Ile p-nitroanilide): 0.5%
- Relative activity (%) ([2]; Leu p-nitroanilide): 18.5%
- Relative activity (%) ([2]; Lys p-nitroanilide): 6%
- Relative activity (%) ([2]; Met p-nitroanilide): 24%
- Relative activity (%) ([2]; Phe* p-nitroanilide (suspension)): 0%
- Relative activity (%) ([2]; Pro p-nitroanilide): 0%
- Relative activity (%) ([2]; Val p-nitroanilide): 0.5%
- specific activity [3]: 6.45 GAPU/mg
- % Relative increase in FAA: Ala ([4]; 1.5% FLAVOURZYME +67 kDa AP): 130.3%
- % Relative increase in FAA: Arg ([4]; 1.5% FLAVOURZYME +67 kDa AP): 37.4%
- % Relative increase in FAA: Asn ([4]; 1.5% FLAVOURZYME +67 kDa AP): 32.3%
- % Relative increase in FAA: Asp ([4]; 1.5% FLAVOURZYME +67 kDa AP): 164.5%
- % Relative increase in FAA: Cys ([4]; 1.5% FLAVOURZYME +67 kDa AP): 12.6%
- % Relative increase in FAA: Gln ([4]; 1.5% FLAVOURZYME +67 kDa AP): 138.9%
- % Relative increase in FAA: Glu ([4]; 1.5% FLAVOURZYME +67 kDa AP): 145.9%
- % Relative increase in FAA: Gly ([4]; 1.5% FLAVOURZYME +67 kDa AP): 305.7%
- % Relative increase in FAA: His ([4]; 1.5% FLAVOURZYME +67 kDa AP): 30.3%
- % Relative increase in FAA: Ile ([4]; 1.5% FLAVOURZYME +67 kDa AP): 48.7%
- % Relative increase in FAA: Leu ([4]; 1.5% FLAVOURZYME +67 kDa AP): 35.2%
- % Relative increase in FAA: Lys ([4]; 1.5% FLAVOURZYME +67 kDa AP): 62.4%
- % Relative increase in FAA: Met ([4]; 1.5% FLAVOURZYME +67 kDa AP): −20.0%
- % Relative increase in FAA: Phe ([4]; 1.5% FLAVOURZYME +67 kDa AP): 41.8%
- % Relative increase in FAA: Pro ([4]; 1.5% FLAVOURZYME +67 kDa AP): 32.4%
- % Relative increase in FAA: Ser ([4]; 1.5% FLAVOURZYME +67 kDa AP): 69.3%
- % Relative increase in FAA: Thr ([4]; 1.5% FLAVOURZYME +67 kDa AP): 34.7%
- % Relative increase in FAA: Tyr ([4]; 1.5% FLAVOURZYME +67 kDa AP): 47.6%
- % Relative increase in FAA: Val ([4]; 1.5% FLAVOURZYME +67 kDa AP): 44.0%
- % Relative increase in FAA: total ([4]; 1.5% FLAVOURZYME +67 kDa AP): 64.5%
- % Relative increase in FAA: Ala [4, 6]: 27.3%
- % Relative increase in FAA: Arg [4, 6]: −2.9%
- % Relative increase in FAA: Asn [4, 6]: −15.2%
- % Relative increase in FAA: Asp [4, 6]: 24.2%
- % Relative increase in FAA: Cys [4, 6]: 6.3%
- % Relative increase in FAA: Gln [4, 6]: 9.9%
- % Relative increase in FAA: Glu [4, 6]: 28.7%
- % Relative increase in FAA: Gly [4, 6]: 90.6%
- % Relative increase in FAA: His [4, 6]: −6.8%
- % Relative increase in FAA: Ile [4, 6]: −21.0%
- % Relative increase in FAA: Leu [4, 6]: −9.1%
- % Relative increase in FAA: Lys [4, 6]: −1.4%
- % Relative increase in FAA: Met [4, 6]: −46.7%
- % Relative increase in FAA: Phe [4, 6]: −4.5%
- % Relative increase in FAA: Pro [4, 6]: −39.7%
- % Relative increase in FAA: Ser [4, 6]: 12.5%
- % Relative increase in FAA: Thr [4, 6]: −18.3%
- % Relative increase in FAA: Tyr [4, 6]: −6.9%
- % Relative increase in FAA: Val [4, 6]: −17.7%
- % Relative increase in FAA: total [4, 6]: 0.0%
- % Relative increase in FAA: Ala ([4]; 6.0% FLAVOURZYME +67 kDa AP): 36.5%
- % Relative increase in FAA: Arg ([4]; 6.0% FLAVOURZYME +67 kDa AP): −31.4%
- % Relative increase in FAA: Asn ([4]; 6.0% FLAVOURZYME +67 kDa AP): 7.6%
- % Relative increase in FAA: Asp ([4]; 6.0% FLAVOURZYME +67 kDa AP): 24.8%
- % Relative increase in FAA: Cys ([4]; 6.0% FLAVOURZYME +67 kDa AP): 9.5%
- % Relative increase in FAA: Gln ([4]; 6.0% FLAVOURZYME +67 kDa AP): 28.1%
- % Relative increase in FAA: Glu ([4]; 6.0% FLAVOURZYME +67 kDa AP): 31.3%
- % Relative increase in FAA: Gly ([4]; 6.0% FLAVOURZYME +67 kDa AP): 92.9%
- % Relative increase in FAA: His ([4]; 6.0% FLAVOURZYME +67 kDa AP): 7.5%
- % Relative increase in FAA: Ile ([4]; 6.0% FLAVOURZYME +67 kDa AP): 7.2%
- % Relative increase in FAA: Leu ([4]; 6.0% FLAVOURZYME +67 kDa AP): 5.2%
- % Relative increase in FAA: Lys ([4]; 6.0% FLAVOURZYME +67 kDa AP): 13.8%
- % Relative increase in FAA: Met ([4]; 6.0% FLAVOURZYME +67 kDa AP): 21.1%
- % Relative increase in FAA: Phe ([4]; 6.0% FLAVOURZYME +67 kDa AP): 7.2%
- % Relative increase in FAA: Pro ([4]; 6.0% FLAVOURZYME +67 kDa AP): −11.5%
- % Relative increase in FAA: Ser ([4]; 6.0% FLAVOURZYME +67 kDa AP): 41.7%
- % Relative increase in FAA: Thr ([4]; 6.0% FLAVOURZYME +67 kDa AP): 2.4%
- % Relative increase in FAA: Tyr ([4]; 6.0% FLAVOURZYME +67 kDa AP): 8.5%
- % Relative increase in FAA: Val ([4]; 6.0% FLAVOURZYME +67 kDa AP): 6.3%
- % Relative increase in FAA: total ([4]; 6.0% FLAVOURZYME +67 kDa AP): 10.3%
- Km ([5]; Ala-pNA, pH 7.5): 2500 µM
- kinetics of hydrolysis of Ala-pNA ([5]; pH 5.5, apparent Km and Vmax negative due to activation by substrate): did not follow Michaelis-Menten kinetics
